Results from patent US11512128B2, “VEGF/DLL4 binding agents and uses thereof” (MEREO BIOPHARMA 5, INC., priority 2011, dated 2022).

Key:
VEGF and DLL4 = VEGF and DLL4 (Homo sapiens, UniProt P15692+Q9NR61); assay: HTRF assay for simultaneous binding to human VEGF and human DLL4; settings: d2-labeled hDLL4-Fc and Europium cryptate-labeled hVEGF165
Text: FIG. 2. HTRF assay for simultaneous binding of bispecific antibodies to human VEGF and human DLL4. Results are reported in Relative Fluorescence Units (RFU), which represent the ratio of the relative fluorescence intensity at 665 nm to the relative fluorescence intensity at 620 nm. 219R45-MB-21M18 (-●-); 219R45-MB-21R79 (-▪-); 219R45 plus 21M18 (-▴-); 219R45 plus 21R79 (-□-); 219R45 (-▾-); 21M18 (-⋄-); 21R79 (-∘-); control antibody LZ-1 (-Δ-).
To characterize the binding capabilities of certain antibodies and/or antibody mixtures to both VEGF and DLL4, homogeneous time resolved fluorescence (HTRF) assays were performed. Antibodies tested were anti-VEGF/anti-DLL4 bispecific antibodies 219R45-MB-21M18 and 219R45-MB-21R79, parental antibodies 219R45 (anti-VEGF), 21M18 (anti-DLL4), 21R79 (anti-DLL4), a combination of 219R45 and 21M18, or a combination of 219R45 and 21R79. The antibodies or antibody mixtures were serially diluted 2-fold from 3000 nM to 2.9 nM in binding buffer (1× PBS, 0.1% gelatin, 0.1% Polysorbate 20, 400 mM potassium fluoride) and placed in a white 96-well plate. […] The assay plates were incubated for 2 hours to overnight and read on a SpectraMax M5e Microplate reader (Molecular Devices, Sunnyvale, Calif.) at an excitation wavelength of 314 nm.

OMP-C8 colon tumor cells = assay: Tumor growth in human skin graft model; assay type: in vivo, NOD-SCID mice; settings: 25 mg/kg intraperitoneally once a week
Experimental: FIG. 5. Inhibition of colon tumor growth in vivo by an anti-VEGF/anti-DLL4 bispecific antibody. OMP-C8 colon tumor cells were injected subcutaneously into a human skin graft in NOD/SCID mice. Mice were treated with control antibody (-▪-), anti-hDLL4 antibody 21M18 (-▴-), anti-VEGF antibody bevacizumab (-∘-), or anti-VEGF/anti-DLL4 bispecific antibody 219R45-MB-21M18 (-▾-). Data is shown as tumor volume (photons/sec) over days post-treatment. Antibodies were administered intraperitoneally at a dose of 25 mg/kg once a week.
A human skin graft model has been reported which comprises a human skin graft and human tumor cells. A human skin graft is established and then human tumor cells are implanted into the skin graft, allowing the tumor cells to grow in an environment with human stroma and vasculature (Tahtis et al., 2003, Mol. Cancer Ther. 2:[…]). Human skin samples were obtained from neonatal foreskin tissue and grafted onto the lateral flank of NOD-SCID mice. After establishment of the skin graft, luciferase-labeled OMP-C8 colon tumor cells (20,000 cells) were injected intradermally into the human skin. Tumor growth was monitored by bioluminescence imaging using an IVIS imaging system (Caliper Life Sciences, Mountain View, Calif.). Tumors were allowed to grow until they reached 1.2×10^6 photons per second. Tumor-bearing mice (n=6 mice/group) were randomized and treated with control Ab, anti-hDLL4 antibody 21M18, anti-VEGF antibody bevacizumab, or anti-VEGF/anti-DLL4 bispecific antibody 219R45-MB-21M18. Animals were treated once a week and antibodies were administered intraperitoneally at a dose of 25 mg/kg. Tumor growth was monitored by bioluminescence imaging on the indicated days.

OMP-C8 colon tumor = OMP-C8 colon tumor recurrence model; assay type: in vivo, NOD/SCID mice; settings: 21M18, bevacizumab 7.5 mg/kg, bispecifics 15 mg/kg weekly ip; irinotecan 45 mg/kg for first four weeks
Experimental: FIG. 9. Inhibition of colon tumor growth by anti-VEGF/anti-DLL4 bispecific antibodies in tumor recurrence model. OMP-C8 colon tumor cells were injected subcutaneously in NOD/SCID mice. Mice were treated with control antibody (-▪-), anti-hDLL4 antibody 21M18 (-●-), anti-VEGF antibody bevacizumab (-▴-), a combination of 21M18 and bevacizumab (-▾-), anti-VEGF/anti-DLL4 bispecific antibody 219R45-MB-21M18 (-⋄-), or anti-VEGF/anti-DLL4 bispecific antibody 219R45-MB-21R79 (-∘-), all in combination with irinotecan. Antibodies 21M18 and bevacizumab were administered intraperitoneally at a dose of 7.5 mg/kg once a week, bispecific antibodies 219R45-MB-21M18 and 219R45-MB-21R79 were administered intraperitoneally at a dose of 15 mg/kg once a week, and irinotecan was administered for the first 4 weeks at a dose of 45 mg/kg. Data are shown as tumor volume (mm^3) over days post-treatment.
Single cell suspensions of OMP-C8 colon tumor xenografts (20,000 cells) were injected subcutaneously into the flanks of 6-8 week old NOD/SCID mice. […] Tumor growth was monitored and tumor volumes were measured with electronic calipers at the indicated time points. Data are expressed as mean±S.E.M.

Molecule	simultaneous binding to hVEGF and hDLL4 (VEGF and DLL4)	inhibition of tumor growth (bioluminescence) (OMP-C8 colon tumor cells)	inhibition of tumor regrowth after irinotecan was stopped (OMP-C8 colon tumor)
219R45-MB-21R79: anti-VEGF/anti-DLL4 monovalent/bispecific antibody, heavy chains SEQ ID NO:7 and 6, light chains SEQ ID NO:8 (antibody, 21R79 Heavy chain without predicted signal sequence; Light chain without predicted signal sequence) heavy 1: QVQLVQSGAEVKKPGASVKVSCKASGYTFTNYWMHWVRQAPGQGLEWMGDINPSNGRTSYKEKFKRRVTLSVDKSSSTAYMELSSLRSEDTAVYFCTIHYDDKYYPLMDYWGQGTLVTVSSASTKGPSVFPLAPCSRSTSESTAALGCLVKDYFPEPVTVSWNSGALTSGVHTFPAVLQSSGLYSLSSVVTVPSSNFGTQTYTCNVDHKPSNTKVDKTVERKCCVECPPCPAPPVAGPSVFLFPPKPKDTLMISRTPEVTCVVVDVSHEDPEVQFNWYVDGVEVHNAKTKPREEQFNSTFRVVSVLTVVHQDWLNGKEYKCKVSNKGLPAPIEKTISKTKGQPREPQVYTLPPSREKMTKNQVSLTCLVKGFYPSDIAVEWESNGQPENNYKTTPPMLKSDGSFFLYSKLTVDKSRWQQGNVFSCSVMHEALHNHYTQKSLSLSPGK heavy 2: QVQLVQSGAEVKKPGASVKISCKASGYSFTAYYIHWVKQAPGQGLEWIGYIANYNRATNYNQKFKGRVTFTTDTSTSTAYMELRSLRSDDTAVYYCARDYDYDVGMDYWGQGTLVTVSSASTKGPSVFPLAPCSRSTSESTAALGCLVKDYFPEPVTVSWNSGALTSGVHTFPAVLQSSGLYSLSSVVTVPSSNFGTQTYTCNVDHKPSNTKVDKTVERKCCVECPPCPAPPVAGPSVFLFPPKPKDTLMISRTPEVTCVVVDVSHEDPEVQFNWYVDGVEVHNAKTKPREEQFNSTFRVVSVLTVVHQDWLNGKEYKCKVSNKGLPAPIEKTISKTKGQPREPQVYTLPPSREEMTKNQVSLTCLVEGFYPSDIAVEWESNGQPENNYKTTPPMLDSDGSFFLYSELTVDKSRWQQGNVFSCSVMHEALHNHYTQKSLSLSPGK light: DIVMTQSPDSLAVSLGERATISCRASESVDNYGISFMKWFQQKPGQPPKLLIYAASNQGSGVPDRFSGSGSGTDFTLTISSLQAEDVAVYYCQQSKEVPWTFGGGTKVEIKRTVAAPSVIFPPSDEQLKSGTASVVCLLNNFYPREAKVQWKVDNALQSGNSQESVTEQDSKDSTYSLSSTLTLSKADYEKHKVYACEVTHQGLSSPVTKSFNRGEC	able to bind both hVEGF and hDLL4 simultaneously		
219R45-MB-21M18: anti-VEGF/anti-DLL4 monovalent/bispecific antibody, heavy chains SEQ ID NO:7 and 5, light chains SEQ ID NO:8 (antibody, 21R79 Heavy chain without predicted signal sequence; 21M18 Heavy chain without predicted signal sequence; Light chain without predicted signal sequence) heavy 1: QVQLVQSGAEVKKPGASVKVSCKASGYTFTNYWMHWVRQAPGQGLEWMGDINPSNGRTSYKEKFKRRVTLSVDKSSSTAYMELSSLRSEDTAVYFCTIHYDDKYYPLMDYWGQGTLVTVSSASTKGPSVFPLAPCSRSTSESTAALGCLVKDYFPEPVTVSWNSGALTSGVHTFPAVLQSSGLYSLSSVVTVPSSNFGTQTYTCNVDHKPSNTKVDKTVERKCCVECPPCPAPPVAGPSVFLFPPKPKDTLMISRTPEVTCVVVDVSHEDPEVQFNWYVDGVEVHNAKTKPREEQFNSTFRVVSVLTVVHQDWLNGKEYKCKVSNKGLPAPIEKTISKTKGQPREPQVYTLPPSREKMTKNQVSLTCLVKGFYPSDIAVEWESNGQPENNYKTTPPMLKSDGSFFLYSKLTVDKSRWQQGNVFSCSVMHEALHNHYTQKSLSLSPGK heavy 2: QVQLVQSGAEVKKPGASVKISCKASGYSFTAYYIHWVKQAPGQGLEWIGYISSYNGATNYNQKFKGRVTFTTDTSTSTAYMELRSLRSDDTAVYYCARDYDYDVGMDYWGQGTLVTVSSASTKGPSVFPLAPCSRSTSESTAALGCLVKDYFPEPVTVSWNSGALTSGVHTFPAVLQSSGLYSLSSVVTVPSSNFGTQTYTCNVDHKPSNTKVDKTVERKCCVECPPCPAPPVAGPSVFLFPPKPKDTLMISRTPEVTCVVVDVSHEDPEVQFNWYVDGVEVHNAKTKPREEQFNSTFRVVSVLTVVHQDWLNGKEYKCKVSNKGLPAPIEKTISKTKGQPREPQVYTLPPSREEMTKNQVSLTCLVEGFYPSDIAVEWESNGQPENNYKTTPPMLDSDGSFFLYSELTVDKSRWQQGNVFSCSVMHEALHNHYTQKSLSLSPGK light: DIVMTQSPDSLAVSLGERATISCRASESVDNYGISFMKWFQQKPGQPPKLLIYAASNQGSGVPDRFSGSGSGTDFTLTISSLQAEDVAVYYCQQSKEVPWTFGGGTKVEIKRTVAAPSVIFPPSDEQLKSGTASVVCLLNNFYPREAKVQWKVDNALQSGNSQESVTEQDSKDSTYSLSSTLTLSKADYEKHKVYACEVTHQGLSSPVTKSFNRGEC	able to bind both hVEGF and hDLL4 simultaneously	more effective than either the anti-DLL4 antibody or the anti-VEGF antibody alone	more effective at inhibiting tumor regrowth than the mixture of the two antibodies
21M18: anti-DLL4 antibody, parental antibody (Hoey et al., 2009; U.S. Pat. No. 7,750,124) (antibody, V domains shown) VH: QVQLVQSGAEVKKPGASVKISCKASGYSFTAYYIHWVKQAPGQGLEWIGYISSYNGATNYNQKFKGRVTFTTDTSTSTAYMELRSLRSDDTAVYYCARDYDYDVGMDYWGQGTLVTVSS VL: DIVMTQSPDSLAVSLGERATISCRASESVDNYGISFMKWFQQKPGQPPKLLIYAASNQGSGVPDRFSGSGSGTDFTLTISSLQAEDVAVYYCQQSKEVPWTFGGGTKVEIK		inhibited tumor growth	continued to inhibit tumor growth after treatment with irinotecan was stopped
